Earlier results on 1 substance are cited in paper PMC5337993.

A word on the Kd: it is a measure of binding affinity in units of concentration.

This data set deals with Kv1.3 (Homo sapiens) (UniProt P22001).
Chain of UniProt P22001 (P22001 whole entry): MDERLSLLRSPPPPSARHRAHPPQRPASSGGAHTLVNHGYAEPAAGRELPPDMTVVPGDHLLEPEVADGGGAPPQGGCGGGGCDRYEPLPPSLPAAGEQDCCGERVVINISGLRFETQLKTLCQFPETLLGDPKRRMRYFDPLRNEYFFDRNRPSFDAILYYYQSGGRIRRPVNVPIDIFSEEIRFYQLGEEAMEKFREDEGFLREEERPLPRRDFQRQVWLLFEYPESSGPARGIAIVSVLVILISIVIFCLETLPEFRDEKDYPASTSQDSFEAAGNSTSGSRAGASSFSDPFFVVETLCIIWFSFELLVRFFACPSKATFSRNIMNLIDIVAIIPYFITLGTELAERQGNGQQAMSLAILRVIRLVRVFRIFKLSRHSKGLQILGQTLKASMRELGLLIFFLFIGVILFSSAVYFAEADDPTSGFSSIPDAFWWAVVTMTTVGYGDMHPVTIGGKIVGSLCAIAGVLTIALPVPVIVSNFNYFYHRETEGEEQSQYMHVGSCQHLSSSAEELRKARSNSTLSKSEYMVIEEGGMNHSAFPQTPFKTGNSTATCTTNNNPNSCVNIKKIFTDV

For the substance ShK (from UniProt P29187), the equilibrium dissociation constant (Kd) was 0.01 nM.
